In US20120135923A1 (IPSEN PHARMA S A S, published 2012):
Bridge positions count the residues as written; N and C are the ends. Square brackets hold non-standard residues; d marks the D form. 1Nal = N[C@@H](Cc1cccc2ccccc12)C(=O)O; 2Nal = N[C@@H](Cc1ccc2ccccc2c1)C(=O)O; d2Nal = N[C@H](Cc1ccc2ccccc2c1)C(=O)O; Bta = N[C@@H](Cc1csc2ccccc12)C(=O)O; βAla = NCCC(=O)O

Tests used:
Assay in all cases: [125I]-NDP-α-MSH competition, membranes
[1] = molecular target: T1, human melanocortin receptor subtype 1 (hMC1-R) (human, UniProt Q01726 1-317)
T1 construct: whole, on cells; membranes of CHO-K1 cells
T1 sequence (Q01726 whole entry): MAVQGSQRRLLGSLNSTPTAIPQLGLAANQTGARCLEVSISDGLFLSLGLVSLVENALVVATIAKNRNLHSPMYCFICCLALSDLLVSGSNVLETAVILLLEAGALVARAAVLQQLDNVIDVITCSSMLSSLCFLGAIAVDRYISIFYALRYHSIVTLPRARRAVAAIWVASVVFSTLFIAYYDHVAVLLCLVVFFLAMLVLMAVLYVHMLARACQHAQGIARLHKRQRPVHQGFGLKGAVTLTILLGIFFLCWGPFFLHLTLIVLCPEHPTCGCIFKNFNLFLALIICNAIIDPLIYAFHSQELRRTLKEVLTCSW

[2] = molecular target: T2, human melanocortin receptor subtype 3 (hMC3-R) (human, UniProt P41968 1-323)
T2 construct: whole, on cells; membranes of CHO-K1 cells
T2 sequence (P41968 whole entry): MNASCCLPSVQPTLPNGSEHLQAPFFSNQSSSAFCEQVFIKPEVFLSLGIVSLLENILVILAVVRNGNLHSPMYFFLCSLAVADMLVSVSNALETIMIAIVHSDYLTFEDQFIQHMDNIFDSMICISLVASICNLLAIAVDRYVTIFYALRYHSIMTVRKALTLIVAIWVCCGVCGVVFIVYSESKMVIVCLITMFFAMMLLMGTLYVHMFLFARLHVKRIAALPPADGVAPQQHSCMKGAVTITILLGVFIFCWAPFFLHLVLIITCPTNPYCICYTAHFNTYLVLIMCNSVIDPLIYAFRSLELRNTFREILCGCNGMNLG

[3] = molecular target: T3, human melanocortin receptor subtype 4 (hMC4-R) (human, UniProt P32245 1-332)
T3 construct: whole, on cells; membranes of CHO-K1 cells
T3 sequence (P32245 whole entry): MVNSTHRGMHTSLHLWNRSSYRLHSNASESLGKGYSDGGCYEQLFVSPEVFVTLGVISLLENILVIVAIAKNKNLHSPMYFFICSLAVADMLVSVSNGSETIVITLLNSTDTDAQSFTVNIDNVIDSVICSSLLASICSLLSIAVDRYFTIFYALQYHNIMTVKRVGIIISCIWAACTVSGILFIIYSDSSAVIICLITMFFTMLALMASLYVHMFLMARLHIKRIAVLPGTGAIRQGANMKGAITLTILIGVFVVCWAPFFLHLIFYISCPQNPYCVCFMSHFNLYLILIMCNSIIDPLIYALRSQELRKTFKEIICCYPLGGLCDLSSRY

[4] = molecular target: T4, human melanocortin receptor subtype 5 (hMC5-R) (human, UniProt P33032 1-325)
T4 construct: whole, on cells; membranes of CHO-K1 cells
T4 sequence (P33032 whole entry): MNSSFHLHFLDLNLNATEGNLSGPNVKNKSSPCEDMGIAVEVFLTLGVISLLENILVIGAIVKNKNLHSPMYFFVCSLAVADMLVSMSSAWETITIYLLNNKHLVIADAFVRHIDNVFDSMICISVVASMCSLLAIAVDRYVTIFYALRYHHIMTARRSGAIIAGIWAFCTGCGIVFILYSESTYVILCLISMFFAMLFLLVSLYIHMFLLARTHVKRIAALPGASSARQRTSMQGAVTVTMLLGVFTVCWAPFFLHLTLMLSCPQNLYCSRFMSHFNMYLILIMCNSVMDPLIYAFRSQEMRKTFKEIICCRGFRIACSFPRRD

Binder | Ki [1] [nM] | Ki [2] [nM] | Ki [3] [nM] | Ki [4] [nM]
Ac-CEH[d2Nal]R[Bta]ACPPKD[βAla]GRRRRRQRRR-NH2 (disulfide 1-8) | 12.8 | 15.9 | 0.95 | 165
Ac-CEH[d2Nal]R[1Nal]ACPPKD[βAla]RRRRRRQRRR-NH2 (disulfide 1-8) | 6.66 | 19.3 | 0.819 | 88.8
Ac-CEH[d2Nal]R[Bta]ACPPRD[βAla]RRRRRRQRRR-NH2 (disulfide 1-8; SMILES CC(=O)N[C@H]1CSSC[C@@H](C(=O)N2CCC[C@H]2C(=O)N2CCC[C@H]2C(=O)N[C@@H](CCCNC(=N)N)C(=O)N[C@@H](CC(=O)O)C(=O)NCCC(=O)N[C@@H](CCCNC(=N)N)C(=O)N[C@@H](CCCNC(=N)N)C(=O)N[C@@H](CCCNC(=N)N)C(=O)N[C@@H](CCCNC(=N)N)C(=O)N[C@@H](CCCNC(=N)N)C(=O)N[C@@H](CCCNC(=N)N)C(=O)N[C@@H](CCC(N)=O)C(=O)N[C@@H](CCCNC(=N)N)C(=O)N[C@@H](CCCNC(=N)N)C(=O)N[C@@H](CCCNC(=N)N)C(N)=O)NC(=O)[C@H](C)NC(=O)[C@H](Cc2csc3ccccc23)NC(=O)[C@H](CCCNC(=N)N)NC(=O)[C@@H](Cc2ccc3ccccc3c2)NC(=O)[C@H](Cc2c[nH]cn2)NC(=O)[C@H](CCC(=O)O)NC1=O) | 7.32 | 11 | 0.659 | 78
Ac-CEH[d2Nal]R[1Nal]ACPPKD[βAla]GRRKRRQRRR-NH2 (disulfide 1-8; SMILES CC(=O)N[C@H]1CSSC[C@@H](C(=O)N2CCC[C@H]2C(=O)N2CCC[C@H]2C(=O)N[C@@H](CCCCN)C(=O)N[C@@H](CC(=O)O)C(=O)NCCC(=O)NCC(=O)N[C@@H](CCCNC(=N)N)C(=O)N[C@@H](CCCNC(=N)N)C(=O)N[C@@H](CCCCN)C(=O)N[C@@H](CCCNC(=N)N)C(=O)N[C@@H](CCCNC(=N)N)C(=O)N[C@@H](CCC(N)=O)C(=O)N[C@@H](CCCNC(=N)N)C(=O)N[C@@H](CCCNC(=N)N)C(=O)N[C@@H](CCCNC(=N)N)C(N)=O)NC(=O)[C@H](C)NC(=O)[C@H](Cc2cccc3ccccc23)NC(=O)[C@H](CCCNC(=N)N)NC(=O)[C@@H](Cc2ccc3ccccc3c2)NC(=O)[C@H](Cc2c[nH]cn2)NC(=O)[C@H](CCC(=O)O)NC1=O) | 1.81 | 2.08 | 0.305 | 19.3
Ac-CEH[d2Nal]R[2Nal]ACPPKD[βAla]GRRKRRQRRR-NH2 (disulfide 1-8; SMILES CC(=O)N[C@H]1CSSC[C@@H](C(=O)N2CCC[C@H]2C(=O)N2CCC[C@H]2C(=O)N[C@@H](CCCCN)C(=O)N[C@@H](CC(=O)O)C(=O)NCCC(=O)NCC(=O)N[C@@H](CCCNC(=N)N)C(=O)N[C@@H](CCCNC(=N)N)C(=O)N[C@@H](CCCCN)C(=O)N[C@@H](CCCNC(=N)N)C(=O)N[C@@H](CCCNC(=N)N)C(=O)N[C@@H](CCC(N)=O)C(=O)N[C@@H](CCCNC(=N)N)C(=O)N[C@@H](CCCNC(=N)N)C(=O)N[C@@H](CCCNC(=N)N)C(N)=O)NC(=O)[C@H](C)NC(=O)[C@H](Cc2ccc3ccccc3c2)NC(=O)[C@H](CCCNC(=N)N)NC(=O)[C@@H](Cc2ccc3ccccc3c2)NC(=O)[C@H](Cc2c[nH]cn2)NC(=O)[C@H](CCC(=O)O)NC1=O) [Ac-c(Cys-Glu-His-D-2-Nal-Arg-2-Nal-Ala-Cys)-Pro-Pro-Lys-Asp-β-[…]NH2] | 2.71 | 0.732 | 0.202 | 5.53
Ac-CEH[d2Nal]R[Bta]ACPPKD[βAla]RRRRRRQRRR-NH2 (disulfide 1-8) | 6.77 | 14.3 | 0.781 | 84
Ac-CEH[d2Nal]R[1Nal]ACPPKD[βAla]GRKRRRQRRR-NH2 (disulfide 1-8; SMILES CC(=O)N[C@H]1CSSC[C@@H](C(=O)N2CCC[C@H]2C(=O)N2CCC[C@H]2C(=O)N[C@@H](CCCCN)C(=O)N[C@@H](CC(=O)O)C(=O)NCCC(=O)NCC(=O)N[C@@H](CCCNC(=N)N)C(=O)N[C@@H](CCCCN)C(=O)N[C@@H](CCCNC(=N)N)C(=O)N[C@@H](CCCNC(=N)N)C(=O)N[C@@H](CCCNC(=N)N)C(=O)N[C@@H](CCC(N)=O)C(=O)N[C@@H](CCCNC(=N)N)C(=O)N[C@@H](CCCNC(=N)N)C(=O)N[C@@H](CCCNC(=N)N)C(N)=O)NC(=O)[C@H](C)NC(=O)[C@H](Cc2cccc3ccccc23)NC(=O)[C@H](CCCNC(=N)N)NC(=O)[C@@H](Cc2ccc3ccccc3c2)NC(=O)[C@H](Cc2c[nH]cn2)NC(=O)[C@H](CCC(=O)O)NC1=O) | 2.69 | 2.59 | 0.243 | 19.2
Ac-CEH[d2Nal]R[Bta]ACPPRD[βAla]RRRRRQRRR-NH2 (disulfide 1-8; SMILES CC(=O)N[C@H]1CSSC[C@@H](C(=O)N2CCC[C@H]2C(=O)N2CCC[C@H]2C(=O)N[C@@H](CCCNC(=N)N)C(=O)N[C@@H](CC(=O)O)C(=O)NCCC(=O)N[C@@H](CCCNC(=N)N)C(=O)N[C@@H](CCCNC(=N)N)C(=O)N[C@@H](CCCNC(=N)N)C(=O)N[C@@H](CCCNC(=N)N)C(=O)N[C@@H](CCCNC(=N)N)C(=O)N[C@@H](CCC(N)=O)C(=O)N[C@@H](CCCNC(=N)N)C(=O)N[C@@H](CCCNC(=N)N)C(=O)N[C@@H](CCCNC(=N)N)C(N)=O)NC(=O)[C@H](C)NC(=O)[C@H](Cc2csc3ccccc23)NC(=O)[C@H](CCCNC(=N)N)NC(=O)[C@@H](Cc2ccc3ccccc3c2)NC(=O)[C@H](Cc2c[nH]cn2)NC(=O)[C@H](CCC(=O)O)NC1=O) | 4.11 | 7.26 | 0.302 | 48.3
Ac-CEH[d2Nal]R[Bta]ACPPKD[βAla]RKRRRQRRR-NH2 (disulfide 1-8; SMILES CC(=O)N[C@H]1CSSC[C@@H](C(=O)N2CCC[C@H]2C(=O)N2CCC[C@H]2C(=O)N[C@@H](CCCCN)C(=O)N[C@@H](CC(=O)O)C(=O)NCCC(=O)N[C@@H](CCCNC(=N)N)C(=O)N[C@@H](CCCCN)C(=O)N[C@@H](CCCNC(=N)N)C(=O)N[C@@H](CCCNC(=N)N)C(=O)N[C@@H](CCCNC(=N)N)C(=O)N[C@@H](CCC(N)=O)C(=O)N[C@@H](CCCNC(=N)N)C(=O)N[C@@H](CCCNC(=N)N)C(=O)N[C@@H](CCCNC(=N)N)C(N)=O)NC(=O)[C@H](C)NC(=O)[C@H](Cc2csc3ccccc23)NC(=O)[C@H](CCCNC(=N)N)NC(=O)[C@@H](Cc2ccc3ccccc3c2)NC(=O)[C@H](Cc2c[nH]cn2)NC(=O)[C@H](CCC(=O)O)NC1=O) | 3.28 | 1.95 | 0.575 | 15.5
